Test results from PMC13228514, “The protocadherin-15-LHFPL5 tip link complex is a heterotetrameric assembly in hair cell stereocilia” (Biophysical Journal, 2026).

Columns and labels:
[1] = target: the molecule itself; assay: single-molecule pull-down (SiMPull); solubilized cochlea supernatant of P6 mice applied to slide coated with anti-PCDH15 mAb 8D1; detected with 39G7 Fab-GFP and anti-LHFPL5 mAb-Alexa647 (colocalization) or with 39G7 Fab-GFP or anti-LHFPL5 Fab-GFP (photobleaching steps); TIRF
[2] = target: the molecule itself; assay: single-molecule pull-down (SiMPull); purified co-expressed recombinant PCDH15/LHFPL5 complex (100 pM) captured on slide by biotinylated anti-PCDH15 mAb 8D1; detected with 39G7 Fab-GFP and anti-LHFPL5 mAb-Alexa647 (colocalization) or with 39G7 Fab-GFP or anti-LHFPL5 Fab-GFP (photobleaching steps); TIRF; buffer with 0.005% C12M, 0.001% CHS, pH 8.0

B1: native lipoma HMGIC fusion partner-like protein 5 (LHFPL5) from mouse cochlea or utricle (natural protein, UniProt Q4KL25 1-219, looked up)
chain: MVKLLPAQEAAKIYHTNYVRNSRAVGVMWGTLTICFSVLVMALFIQPYWIGDSVSTPQAGYFGLFSYCVGNVLSSELICKGGPLDFSSIPSRAFKTAMFFVALAMFLIIGSIICFSLFFVCNTATVYKICAWMQLAAATGLMIGCLVYPDGWDSSEVRRMCGEQTGKYTLGHCTIRWAFMLAILSIGDALILSFLAFVLGYRQDKLLPDDYKADGNEEV
notes: LHFPL5 (TMHS), mouse, endogenous in inner ear tissue; also called native LHFPL5; TMHS; source: endogenous, cochlea or utricle of P6 mice, solubilized (1% C12M, 0.2% CHS), supernatant
stoichiometry N [1]: 2

B2: recombinant lipoma HMGIC fusion partner-like protein 5 (LHFPL5), residues 2-219 (natural protein, Mus musculus, UniProt Q4KL25 2-219, looked up)
chain: VKLLPAQEAAKIYHTNYVRNSRAVGVMWGTLTICFSVLVMALFIQPYWIGDSVSTPQAGYFGLFSYCVGNVLSSELICKGGPLDFSSIPSRAFKTAMFFVALAMFLIIGSIICFSLFFVCNTATVYKICAWMQLAAATGLMIGCLVYPDGWDSSEVRRMCGEQTGKYTLGHCTIRWAFMLAILSIGDALILSFLAFVLGYRQDKLLPDDYKADGNEEV
notes: the results call the construct the full-length protein; also called TMHS; recombinant LHFPL5; source: HEK293 tsa201 cells co-infected with PCDH15 (or PCDH15_(1EC)) and LHFPL5 BacMam viruses; purified as a complex (Strep-Tactin, TALON, SEC)
stoichiometry N [2]: 2

B3: native protocadherin-15 (PCDH15) from mouse cochlea or utricle (natural protein)
chain: not shown
notes: protocadherin-15, mouse, endogenous in inner ear tissue; also called native PCDH15; source: endogenous, cochlea or utricle of P6 mice, solubilized (1% C12M, 0.2% CHS), supernatant
stoichiometry N [1]: 2

B4: recombinant protocadherin-15 (PCDH15), residues 1-1462 (EC1-EC11 and part of the cytoplasmic region) (domain or fragment)
chain: not shown
notes: signal peptide in the construct; also called recombinant PCDH15; source: HEK293 tsa201 cells co-infected with PCDH15 and LHFPL5 BacMam viruses; purified as a complex with LHFPL5 (Strep-Tactin, TALON, SEC)
stoichiometry N [2]: 2
